Measured values as given in US20240116985A1 (published 2024).
Starred links: 1 amine or outer side, 2 acyl side, 3 side chain; linkers in the order of their positions; H or OH if unused. Positions of bridges follow the written chain, without caps; N, C: chain ends. Non-standard residues stand in square brackets, D forms with d. Primed or numbered codes have the meaning given here. B5(4) = 2,2-bis(4-pentenyl)glycine = 2-amino-2-(pent-4-en-1-yl)hept-6-enoic acid (stitching residue), C=CCCCC(CCCC=C)(N[*:1])C(=O)[*:2]; B5(9) = 2-amino-2-(pent-4-en-1-yl)hept-6-enoic acid (2,2-bis(4-pentenyl)glycine), C=CCCCC(CCCC=C)(N[*:1])C(=O)[*:2]; B5(14) = 2-amino-2-(pent-4-en-1-yl)hept-6-enoic acid (bis-pentenylglycine), C=CCCCC(CCCC=C)(N[*:1])C(=O)[*:2]; 23FF = 2,3-difluoro-L-phenylalanine, O=C([C@H](Cc1cccc(F)c1F)N[*:1])[*:2]; WCHO = 1-formyl-L-tryptophan, O=Cn1cc(C[C@H](N[*:1])C(=O)[*:2])c2ccccc21; S(OMe) = O-methyl-L-serine, COC[C@H](N[*:1])C(=O)[*:2]; Phe(3-CF3) = N[C@@H](Cc1cccc(C(F)(F)F)c1)C(=O)O; Phe(2-CONH2) = NC(=O)c1ccccc1C[C@H](N)C(=O)O; Phe(3,5-F2) = N[C@@H](Cc1cc(F)cc(F)c1)C(=O)O; Ala(2-furyl) = N[C@@H](Cc1ccco1)C(=O)O; His(τ-Me) = Cn1cnc(C[C@H](N)C(=O)O)c1; Bta = N[C@@H](Cc1csc2ccccc12)C(=O)O; αAllylPro = C=CC[C@@]1(C(=O)O)CCCN1; S8 = C=CCCCCCC[C@](C)(N)C(=O)O

T1: full-length beta-Catenin (Uniprot ID P35222) (Homo sapiens (Human), UniProt P35222 1-781)
T1 construct: also called bCat; B-Catenin
T1 sequence: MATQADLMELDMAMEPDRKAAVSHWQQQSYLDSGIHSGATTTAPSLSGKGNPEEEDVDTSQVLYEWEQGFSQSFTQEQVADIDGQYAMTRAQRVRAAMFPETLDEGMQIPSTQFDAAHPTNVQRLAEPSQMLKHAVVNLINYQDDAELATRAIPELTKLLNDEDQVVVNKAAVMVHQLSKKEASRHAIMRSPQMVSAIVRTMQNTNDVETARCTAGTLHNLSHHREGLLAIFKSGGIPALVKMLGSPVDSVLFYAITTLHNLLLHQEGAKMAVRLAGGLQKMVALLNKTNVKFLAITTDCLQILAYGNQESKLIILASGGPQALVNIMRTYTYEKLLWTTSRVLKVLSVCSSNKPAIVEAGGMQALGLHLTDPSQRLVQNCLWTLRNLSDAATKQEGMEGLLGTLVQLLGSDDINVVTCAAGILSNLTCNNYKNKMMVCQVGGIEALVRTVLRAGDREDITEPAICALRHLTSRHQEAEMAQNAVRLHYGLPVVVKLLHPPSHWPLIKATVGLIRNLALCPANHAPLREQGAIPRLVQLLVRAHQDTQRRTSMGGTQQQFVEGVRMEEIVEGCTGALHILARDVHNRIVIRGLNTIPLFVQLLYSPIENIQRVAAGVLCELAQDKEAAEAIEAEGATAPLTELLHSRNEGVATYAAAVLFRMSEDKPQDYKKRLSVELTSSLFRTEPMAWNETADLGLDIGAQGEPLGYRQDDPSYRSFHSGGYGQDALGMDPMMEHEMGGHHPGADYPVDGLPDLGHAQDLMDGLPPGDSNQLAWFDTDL

T2: full-length beta-Catenin (Uniprot ID P35222) (Homo sapiens (Human), UniProt P35222 1-781)
T2 construct: also called bCat; B-Catenin
T2 sequence: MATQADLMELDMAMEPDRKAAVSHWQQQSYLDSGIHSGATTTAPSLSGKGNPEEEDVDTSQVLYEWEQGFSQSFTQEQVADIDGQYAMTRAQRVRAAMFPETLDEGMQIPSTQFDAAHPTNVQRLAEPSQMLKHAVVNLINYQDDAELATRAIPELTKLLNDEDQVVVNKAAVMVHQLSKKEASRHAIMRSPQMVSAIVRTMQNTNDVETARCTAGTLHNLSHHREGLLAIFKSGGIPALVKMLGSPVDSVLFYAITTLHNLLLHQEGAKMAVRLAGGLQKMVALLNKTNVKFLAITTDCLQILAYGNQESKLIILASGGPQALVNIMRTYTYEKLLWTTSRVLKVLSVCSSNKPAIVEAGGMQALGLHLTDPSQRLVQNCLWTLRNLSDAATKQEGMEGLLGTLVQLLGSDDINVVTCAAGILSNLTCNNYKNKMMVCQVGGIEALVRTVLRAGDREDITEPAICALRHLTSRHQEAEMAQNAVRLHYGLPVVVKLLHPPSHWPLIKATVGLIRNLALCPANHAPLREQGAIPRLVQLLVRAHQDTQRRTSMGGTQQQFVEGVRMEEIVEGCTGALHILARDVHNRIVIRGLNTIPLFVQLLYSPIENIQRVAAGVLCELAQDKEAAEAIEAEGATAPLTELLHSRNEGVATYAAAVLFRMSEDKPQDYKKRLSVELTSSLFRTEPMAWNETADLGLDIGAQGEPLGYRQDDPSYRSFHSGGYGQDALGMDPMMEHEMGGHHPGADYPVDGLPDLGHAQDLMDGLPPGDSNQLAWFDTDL

T3: full-length beta-Catenin (Uniprot ID P35222) (Homo sapiens (Human), UniProt P35222 1-781)
T3 construct: also called bCat; B-Catenin
T3 sequence: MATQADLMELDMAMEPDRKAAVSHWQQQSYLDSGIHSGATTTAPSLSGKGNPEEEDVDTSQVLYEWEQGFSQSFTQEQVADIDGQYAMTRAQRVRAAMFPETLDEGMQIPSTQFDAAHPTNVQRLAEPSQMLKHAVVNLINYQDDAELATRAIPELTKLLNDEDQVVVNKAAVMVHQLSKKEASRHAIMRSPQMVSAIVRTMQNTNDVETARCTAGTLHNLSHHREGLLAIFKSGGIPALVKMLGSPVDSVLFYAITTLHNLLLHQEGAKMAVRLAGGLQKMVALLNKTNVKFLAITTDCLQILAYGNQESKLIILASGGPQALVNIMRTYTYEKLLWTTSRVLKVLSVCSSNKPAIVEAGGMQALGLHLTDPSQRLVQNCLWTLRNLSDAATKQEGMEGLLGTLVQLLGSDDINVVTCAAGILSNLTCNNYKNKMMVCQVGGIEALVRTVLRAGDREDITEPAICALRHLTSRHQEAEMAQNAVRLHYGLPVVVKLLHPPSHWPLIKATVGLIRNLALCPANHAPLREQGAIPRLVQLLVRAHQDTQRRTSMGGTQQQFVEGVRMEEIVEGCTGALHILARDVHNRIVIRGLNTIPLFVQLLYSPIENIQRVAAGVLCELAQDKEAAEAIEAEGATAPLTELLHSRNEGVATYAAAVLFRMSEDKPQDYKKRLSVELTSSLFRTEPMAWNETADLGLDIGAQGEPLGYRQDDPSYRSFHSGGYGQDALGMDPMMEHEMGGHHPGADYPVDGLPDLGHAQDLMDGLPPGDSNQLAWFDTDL


Target: T1, full-length beta-Catenin (Uniprot ID …)
Assay: fluorescence polarization competition; 10 nM full-length beta-catenin, competitor 10 nM 5FAM-TCF4(10-53)
Experimental: (§1) The plate was incubated protected from light for 60 minutes at 20° C. prior to read. Reads were performed on a CLARIOstar plate reader (BMG Labtech) in duplicate, and data were fitted to a 1:1 binding model with hill slope using an in-house script. All provided concentrations are final concentrations.

Binder | EC50 [nM]
Ac-[αAllylPro]DA[B5(4)]DDAA[Phe(3-CF3)]V[S8]F[Bta]Q-NH2 (staple 1-4, 4-11, Stapled peptide composition (olefin metathesis)) [I-373] | 945
Ac-[αAllylPro]DA[B5(9)]DEAAFV[S8][Phe(3,5-F2)][Bta]Q-NH2 (staple 1-4, 4-11, Stapled peptide composition (olefin metathesis)) [I-394] | 5000

Continued, values first:

EC50 [nM] | Binder
1910 | Ac-[αAllylPro]DA[B5(9)]DEAA[23FF]V[S8]F[Bta]Q-NH2 (staple 1-4, 4-11; also: later eluting HPLC isomer, E/Z not assigned, Stapled peptide) [I-391]
3430 | XDAXDHAAFVXFXQ (not fully specified; Ac-PL3-Asp-Ala-B5-Asp-His-Ala-Ala-Phe-Val-S8-3FF-BztA-Gln-NH2: N-terminal acetyl, C-terminal amide; non-natural PL3(1), B5(4), S8(11), 3FF(12), BztA(13); staples PL3-B5 and B5-S8, Stapled peptide) [I-396]

Target: T2, full-length beta-Catenin (Uniprot ID …)
Assay: fluorescence polarization competition vs 5FAM-TCF4(10-53) on full-length beta-catenin
Experimental: as §1

Binder | IC50 [nM]
Ac-[αAllylPro]DA[B5(14)]DDAAHV[S8]FWQ-NH2 (staple 1-4, 4-11; not fully specified (residue 9), Stapled peptide composition; also called Ac-PL3-Asp-Ala-B5-Asp-Asp-Ala-Ala-3meH-Val-S8-Phe-Trp-Gln-NH2) [I-332] | 5000
Ac-[αAllylPro]DA[B5(4)]DDAA[His(τ-Me)]V[S8]FWQ-NH2 (staple 1-4, 4-11; not fully specified; printed as Ac-PL3-Asp-Ala-B5-Asp-Asp-Ala-Ala-1meH-Val-S8-Phe-Trp-Gln-NH2, Stapled peptide composition; also called Ac-PL3-Asp-Ala-B5-Asp-Asp-Ala-Ala-1meH-Val-S8-Phe-Trp-Gln-NH2) [I-329] | 5000
XDAXDDAAAVXFWQ (not fully specified; N-terminal Ac; PL3 at 1; B5 at 4; S8 at 11; C-terminal NH2; stapled PL3-B5 and B5-S8 (olefin metathesis), Stapled peptide composition; also called Ac-PL3-Asp-Ala-B5-Asp-Asp-Ala-Ala-Ala-Val-S8-Phe-Trp-Gln-NH2) [I-353] | 5000
Ac-[αAllylPro]DA[B5(4)]DDAAFS[S8]F[WCHO]S-NH2 (staple 1-4, 4-11, Stapled peptide composition; also called Ac-PL3-Asp-Ala-B5-Asp-Asp-Ala-Ala-Phe-Ser-S8-Phe-WCHO-Ser-NH2) [I-333] | 2760
Ac-[αAllylPro]DA[B5(4)]DDAAFV[S8][Phe(2-CONH2)][Bta]Q-NH2 (staple 1-4, 4-11, Stapled peptide composition; also called Ac-PL3-Asp-Ala-B5-Asp-Asp-Ala-Ala-Phe-Val-S8-2CBMF-BztA-Gln-NH2) [I-336] | 153
Ac-[αAllylPro]DA[B5(9)]DDAAFV[S8]Y[Bta]Q-NH2 (staple 1-4, 4-11, Stapled peptide composition; also called Ac-PL3-Asp-Ala-B5-Asp-Asp-Ala-Ala-Phe-Val-S8-Tyr-BztA-Gln-NH2) [I-341] | 2000
Ac-[αAllylPro]D[S(OMe)][B5(9)]DDAAFV[S8]F[Bta]Q-NH2 (staple 1-4, 4-11, Stapled peptide composition; also called Ac-PL3-Asp-S(OMe)-B5-Asp-Asp-Ala-Ala-Phe-Val-S8-Phe-BztA-Gln-NH2) [I-345] | 134
Ac-[αAllylPro]DA[B5(9)]DDAAFT[S8]F[Bta]Q-NH2 (staple 1-4, 4-11, Stapled peptide composition; also called Ac-PL3-Asp-Ala-B5-Asp-Asp-Ala-Ala-Phe-Thr-S8-Phe-BztA-Gln-NH2) [I-342] | 58.5
XDQXDDAAFVXFXQ (not fully specified; N-terminal Ac; PL3 at 1; B5 at 4; S8 at 11; BztA at 13; C-terminal NH2; stapled PL3-B5 and B5-S8 (olefin metathesis), Stapled peptide composition; also called Ac-PL3-Asp-Gln-B5-Asp-Asp-Ala-Ala-Phe-Val-S8-Phe-BztA-Gln-NH2) [I-347] | 122
Ac-[αAllylPro]DA[B5(14)]DDAAHV[S8]FWQ-NH2 (staple 1-4, 4-11; not fully specified (residue 9), Stapled peptide composition; also called Ac-PL3-Asp-Ala-B5-Asp-Asp-Ala-Ala-3meH-Val-S8-Phe-Trp-Gln-NH2) [I-331] | 5000

Other lines, results leading:

IC50 [nM] | Binder
5000 | XDAXDDAAFVXFXQ (not fully specified; N-terminal Ac; PL3 at 1; B5 at 4; S8 at 11; 4CBMF at 12; BztA at 13; C-terminal NH2; stapled PL3-B5 and B5-S8 (olefin metathesis), Stapled peptide composition; also called Ac-PL3-Asp-Ala-B5-Asp-Asp-Ala-Ala-Phe-Val-S8-4CBMF-BztA-Gln-NH2) [I-337]
4720 | Ac-[αAllylPro]DA[B5(4)]DDAA[Ala(2-furyl)]V[S8]FWQ-NH2 (staple 1-4, 4-11; not fully specified; printed as Ac-PL3-Asp-Ala-B5-Asp-Asp-Ala-Ala-2FurA-Val-S8-Phe-Trp-Gln-NH2, Stapled peptide composition; also called Ac-PL3-Asp-Ala-B5-Asp-Asp-Ala-Ala-2FurA-Val-S8-Phe-Trp-Gln-NH2) [I-327]
180 | XDQXDDAAFVXFXQ (not fully specified; N-terminal Ac; PL3 at 1; B5 at 4; S8 at 11; BztA at 13; C-terminal NH2; stapled PL3-B5 and B5-S8 (olefin metathesis), Stapled peptide composition; also called Ac-PL3-Asp-Gln-B5-Asp-Asp-Ala-Ala-Phe-Val-S8-Phe-BztA-Gln-NH2) [I-346]
5000 | Ac-[αAllylPro]DA[B5(4)]DDAA[His(τ-Me)]V[S8]FWQ-NH2 (staple 1-4, 4-11, Stapled peptide composition; also called Ac-PL3-Asp-Ala-B5-Asp-Asp-Ala-Ala-1meH-Val-S8-Phe-Trp-Gln-NH2) [I-330]
1910 | Ac-[αAllylPro]DA[B5(4)]DDAA[Ala(2-furyl)]V[S8]FWQ-NH2 (staple 1-4, 4-11; not fully specified; printed as Ac-PL3-Asp-Ala-B5-Asp-Asp-Ala-Ala-2FurA-Val-S8-Phe-Trp-Gln-NH2, Stapled peptide composition; also called Ac-PL3-Asp-Ala-B5-Asp-Asp-Ala-Ala-2FurA-Val-S8-Phe-Trp-Gln-NH2) [I-328]

Target: T3, full-length beta-Catenin (Uniprot ID …)
Assay: fluorescence polarization competition; displacement of 5FAM-TCF4(10-53) from full-length beta-catenin
Experimental: as §1

Binder | EC50 [nM]
XDLXDDAAFNXFXQ (not fully specified; Ac-PL3-Asp-Leu-B5-Asp-Asp-Ala-Ala-Phe-Asn-S8-Phe-BztA-Gln-NH2; N-terminal acetyl, C-terminal amide; non-natural: PL3(1), B5(4), S8(11), BztA(13); staples PL3(1)-B5(4) and B5(4)-S8(11)) [I-563] | 19
